The values below come from article PMC9734137 (2022).

The target of assay [1] is T1, WT SARS2 RBD (SARS-CoV-2, UniProt P0DTC2 321-591). The assay is described as follows: SPR. (In SPR one partner is held on a chip, and binding of the other changes the refractive index at the surface.)
Assay [2] concerns the target SARS1 RBD (SARS-CoV-1). The assay is described as follows: SPR.
Assay [3] addresses T1, WT SARS2 RBD. The assay is described as follows: SPR. The source holds these as a separate data set.
The target of assay [4] is SARS1 RBD (SARS-CoV-1). The assay is described as follows: SPR. The source holds these as a separate data set.
Assay [5] addresses T1, WT SARS2 RBD. Description: ELISA. For orientation: In an ELISA, binding on a coated surface is turned into a signal by an enzyme label.

As usually defined, the koff is the rate constant with which the complex falls apart. High values mean fast dissociation, low ones slow dissociation. A word on the EC50: it is the concentration at which the effect is half-maximal. A low value points to higher potency in that assay.

Read-outs that look alike come from different tables or passages of the source.

B1: aSA3 (VHH)
VHH: QVQLVESGGGLVQPGGSLRLSCAASGFTSDHYALAWFRQAPGKEREGVSCIDSDGNPFYADSVKGRFTGSRDNAKNTVYLQMNSLKLEDTAVYYCAAGLWYGRSLNSFDYDYWGQGTQVTVSS
Turning to B1, the koff in the assay with WT SARS2 RBD [1] was found to be 9.77e-05 s⁻¹; in the assay with SARS1 RBD [2] it was 0.000364 s⁻¹.

B2: aSA3-Fc (Fc fusion)
chain: QVQLVESGGGLVQPGGSLRLSCAASGFTSDHYALAWFRQAPGKEREGVSCIDSDGNPFYADSVKGRFTGSRDNAKNTVYLQMNSLKLEDTAVYYCAAGLWYGRSLNSFDYDYWGQGTQVTVSS
Regarding B2, the koff in the assay with WT SARS2 RBD [3] came to 1.44e-05 s⁻¹; with SARS1 RBD [4], 8.26e-05 s⁻¹. The molecule also showed a 50% effective concentration (EC50) with WT SARS2 RBD [5] of 0.74 nM.
